Data from PMC7521599.

What was measured:
[1] = molecular target: Skp1 (OCP2) (Cavia porcellus) (UniProt P63209); conditions: cited from earlier work
[2] = molecular target: Skp1ΔΔ (doubly truncated Dictyostelium Skp1A: Δinternal loop/ΔC-terminus) (Dictyostelium discoideum) (UniProt P52285); experiment: AUC
[3] = molecular target: T1, Dictyostelium discoideum Skp1A (Dictyostelium discoideum), P52285; experiment: AUC; conditions: remark: other sources report otherwise
T1 chain: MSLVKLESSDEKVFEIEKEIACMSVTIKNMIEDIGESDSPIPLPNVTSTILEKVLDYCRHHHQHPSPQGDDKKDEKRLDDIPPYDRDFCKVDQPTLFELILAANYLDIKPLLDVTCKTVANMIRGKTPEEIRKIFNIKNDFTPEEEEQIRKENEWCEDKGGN

Skp1 (OCP2) (from UniProt P63209)
Kd [1]: 1.1 µM

Skp1ΔΔ (doubly truncated Dictyostelium Skp1A: Δinternal loop/ΔC-terminus) (from UniProt P52285 1-125) (domain or fragment)
stoichiometry N [2]: 2

B1: Dictyostelium discoideum Skp1A, P52285 1-162 (natural protein)
chain: MSLVKLESSDEKVFEIEKEIACMSVTIKNMIEDIGESDSPIPLPNVTSTILEKVLDYCRHHHQHPSPQGDDKKDEKRLDDIPPYDRDFCKVDQPTLFELILAANYLDIKPLLDVTCKTVANMIRGKTPEEIRKIFNIKNDFTPEEEEQIRKENEWCEDKGGN
Kd [3]: 2.5 µM | stoichiometry N [3]: 2
